Here are results for 125 sequences from the supplement of paper PMC9112550, “Optimization of the antimicrobial peptide Bac7 by deep mutational scanning” (BMC Biology, 2022).

This series relates to Escherichia coli TOP10. The series is described as follows: shrunken log2 fold change of peptide-encoding DNA abundance (4.5 h post-induction vs induction); higher = less antimicrobial activity (less host growth inhibition). Conditions: time post-induction: 4.5 h; library: site-saturation at positions 5, 18, 19, 20.
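Also: peptides expressed intracellularly from a pBAD plasmid library in pooled LB shake-flask culture, induced with 0.3% L-arabinose, DNA abundance read by NGS, three biological replicates, DESeq2 with apeglm shrinkage.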

RRIRTRPPRLPRPRPRPAARPRP: the “shrunken log2 fold change” value was found to be 0.374.
In the case of RRIRKRPPRLPRPRPRPSFNPRP, the “shrunken log2 fold change” value worked out at 0.0137.
For the sequence RRIRERPPRLPRPRPRPVASPRP, the “shrunken log2 fold change” value was -0.0471.
Consider RRIRGRPPRLPRPRPRPEPSPRP, for which the “shrunken log2 fold change” value came out at 1.47.
Take RRIRCRPPRLPRPRPRPARYPRP: the “shrunken log2 fold change” value is -0.438.
Turning to RRIRPRPPRLPRPRPRPIWAPRP, the “shrunken log2 fold change” value stood at 0.384.
Consider RRIRRRPPRLPRPRPRPGHEPRP, for which the “shrunken log2 fold change” value was found to be 0.00414.
Consider RRIRCRPPRLPRPRPRPMSIPRP, for which the “shrunken log2 fold change” value is -0.484.
In the case of RRIRNRPPRLPRPRPRPHCAPRP, the “shrunken log2 fold change” value worked out at 0.0341.
Take RRIRYRPPRLPRPRPRPCWVPRP: the “shrunken log2 fold change” value is -0.158.
In the case of RRIRRRPPRLPRPRPRPFVPPRP, the “shrunken log2 fold change” value came to 0.127.
As to RRIRSRPPRLPRPRPRPRGLPRP, the “shrunken log2 fold change” value came to 0.461.
With RRIRMRPPRLPRPRPRPSYKPRP, the “shrunken log2 fold change” value was -0.296.
RRIRCRPPRLPRPRPRPSIDPRP: the “shrunken log2 fold change” value was -0.505.
Next, RRIRQRPPRLPRPRPRPMVIPRP: -0.105; RRIRMRPPRLPRPRPRPGAEPRP: 3.05.
Next, RRIRKRPPRLPRPRPRPAEVPRP: 0.171; RRIRIRPPRLPRPRPRPGQTPRP: 0.0693; RRIRYRPPRLPRPRPRPVVFPRP: -0.747.
With RRIRWRPPRLPRPRPRPRYGPRP, the “shrunken log2 fold change” value amounted to 0.134.
With RRIRQRPPRLPRPRPRPARYPRP, the “shrunken log2 fold change” value worked out at 0.0932.
As for RRIRIRPPRLPRPRPRPDKWPRP, the “shrunken log2 fold change” value is -0.318.
Take RRIRARPPRLPRPRPRPLAMPRP: the “shrunken log2 fold change” value turned out to be 0.474.
Turning to RRIRIRPPRLPRPRPRPTRFPRP, the “shrunken log2 fold change” value worked out at 0.04.
RRIRCRPPRLPRPRPRPRSTPRP: the “shrunken log2 fold change” value came out at 0.0137.
Take RRIRIRPPRLPRPRPRPCNMPRP: the “shrunken log2 fold change” value is -0.0732.
For RRIRVRPPRLPRPRPRPVERPRP, the “shrunken log2 fold change” value amounted to 0.0358.
As for RRIRRRPPRLPRPRPRPDLRPRP, the “shrunken log2 fold change” value is 0.398.
For RRIRGRPPRLPRPRPRPYGTPRP, the “shrunken log2 fold change” value is -0.0646.
On to RRIRKRPPRLPRPRPRPFCTPRP, for which the “shrunken log2 fold change” value is -0.0968.
As for RRIRERPPRLPRPRPRPTIQPRP, the “shrunken log2 fold change” value is -0.0576.
In the case of RRIRLRPPRLPRPRPRPYYTPRP, the “shrunken log2 fold change” value is -0.76.
Regarding RRIRQRPPRLPRPRPRPYFLPRP, the “shrunken log2 fold change” value was -0.923.
In the case of RRIRLRPPRLPRPRPRPPRGPRP, the “shrunken log2 fold change” value came to 0.637.
With RRIRDRPPRLPRPRPRPPGPPRP, the “shrunken log2 fold change” value was 1.9.
The figure for RRIRDRPPRLPRPRPRPICVPRP is -0.109; for RRIRQRPPRLPRPRPRPQLIPRP it is -0.237.
Take RRIRRRPPRLPRPRPRPKFHPRP: the “shrunken log2 fold change” value was 0.323.
RRIRFRPPRLPRPRPRPNEEPRP: the “shrunken log2 fold change” value was -0.0458.
Turning to RRIRRRPPRLPRPRPRPMRIPRP, the “shrunken log2 fold change” value was 0.0269.
The figure for RRIRERPPRLPRPRPRPICPPRP is -0.794; for RRIRGRPPRLPRPRPRPAELPRP it is 0.472.
Turning to RRIRIRPPRLPRPRPRPQLLPRP, the “shrunken log2 fold change” value was -0.0818.
Turning to RRIRPRPPRLPRPRPRPLADPRP, the “shrunken log2 fold change” value amounted to 0.188.
Regarding RRIRNRPPRLPRPRPRPPWGPRP, the “shrunken log2 fold change” value stood at 0.254.
On to RRIRERPPRLPRPRPRPAIPPRP, for which the “shrunken log2 fold change” value is -0.737.
RRIRCRPPRLPRPRPRPYYPPRP: the “shrunken log2 fold change” value is -1.27.
RRIRIRPPRLPRPRPRPPFCPRP: the “shrunken log2 fold change” value was -0.256.
The figure for RRIRDRPPRLPRPRPRPQSFPRP is -0.0337; for RRIRQRPPRLPRPRPRPATGPRP it is 0.0181; for RRIRRRPPRLPRPRPRPCYCPRP it is -0.00192.
In the case of RRIRWRPPRLPRPRPRPVWCPRP, the “shrunken log2 fold change” value was determined as 0.0155.
As for RRIRNRPPRLPRPRPRPWAPPRP, the “shrunken log2 fold change” value is -0.23.
Turning to RRIRRRPPRLPRPRPRPPHTPRP, the “shrunken log2 fold change” value is 0.879.
RRIRWRPPRLPRPRPRPCCAPRP: the “shrunken log2 fold change” value was determined as 0.47.
The figure for RRIRCRPPRLPRPRPRPDDLPRP is -0.118; for RRIRWRPPRLPRPRPRPYEAPRP it is -0.569.
Regarding RRIRLRPPRLPRPRPRPEGIPRP, the “shrunken log2 fold change” value is -0.229.
The figure for RRIRFRPPRLPRPRPRPSEHPRP is -0.323; for RRIRGRPPRLPRPRPRPFFFPRP it is 0.696; for RRIRYRPPRLPRPRPRPRFEPRP it is -0.386.
As to RRIRPRPPRLPRPRPRPAPYPRP, the “shrunken log2 fold change” value is -0.0601.
As to RRIRNRPPRLPRPRPRPTTKPRP, the “shrunken log2 fold change” value is -0.0801.
In the case of RRIRQRPPRLPRPRPRPNRIPRP, the “shrunken log2 fold change” value was -0.0402.
In the case of RRIRARPPRLPRPRPRPNRWPRP, the “shrunken log2 fold change” value was 0.331.
RRIRFRPPRLPRPRPRPRQYPRP: the “shrunken log2 fold change” value is -0.465.
For RRIRFRPPRLPRPRPRPLAPPRP, the “shrunken log2 fold change” value is 0.193.
For the sequence RRIRLRPPRLPRPRPRPAEGPRP, the “shrunken log2 fold change” value was determined as 0.242.
As for RRIRNRPPRLPRPRPRPFDHPRP, the “shrunken log2 fold change” value was -0.0345.
The figure for RRIRQRPPRLPRPRPRPRERPRP is 0.553.
As for RRIRTRPPRLPRPRPRPHDTPRP, the “shrunken log2 fold change” value was -0.213.
Turning to RRIRYRPPRLPRPRPRPYYQPRP, the “shrunken log2 fold change” value is -0.462.
Next, RRIRARPPRLPRPRPRPVMNPRP: -0.0562; RRIRYRPPRLPRPRPRPPTFPRP: -0.457.
On to RRIRARPPRLPRPRPRPYPNPRP, for which the “shrunken log2 fold change” value is -0.257.
Next, RRIRVRPPRLPRPRPRPNLVPRP: -0.2; RRIRARPPRLPRPRPRPGARPRP: 0.59.
Turning to RRIRDRPPRLPRPRPRPSSPPRP, the “shrunken log2 fold change” value is -0.341.
For RRIRLRPPRLPRPRPRPIGYPRP, the “shrunken log2 fold change” value was -0.253.
As for RRIRDRPPRLPRPRPRPLITPRP, the “shrunken log2 fold change” value came to 0.189.
As to RRIRRRPPRLPRPRPRPNAMPRP, the “shrunken log2 fold change” value is 0.258.
RRIRPRPPRLPRPRPRPCETPRP: the “shrunken log2 fold change” value is 0.0508.
For RRIRRRPPRLPRPRPRPWYPPRP, the “shrunken log2 fold change” value is -0.206.
In the case of RRIRLRPPRLPRPRPRPKECPRP, the “shrunken log2 fold change” value was -0.0179.
In the case of RRIRSRPPRLPRPRPRPWMLPRP, the “shrunken log2 fold change” value is -0.14.
Next, RRIRDRPPRLPRPRPRPTPTPRP: 0.194; RRIRMRPPRLPRPRPRPEWIPRP: -0.0024; RRIRFRPPRLPRPRPRPQHHPRP: -0.659.
As for RRIRFRPPRLPRPRPRPRNFPRP, the “shrunken log2 fold change” value was -0.0477.
For the sequence RRIRTRPPRLPRPRPRPLLRPRP, the “shrunken log2 fold change” value is 0.0975.
Regarding RRIRLRPPRLPRPRPRPFCWPRP, the “shrunken log2 fold change” value stood at 0.231.
As to RRIRERPPRLPRPRPRPYVLPRP, the “shrunken log2 fold change” value is -0.125.
In the case of RRIRTRPPRLPRPRPRPYDLPRP, the “shrunken log2 fold change” value was -0.14.
On to RRIRVRPPRLPRPRPRPDRFPRP, for which the “shrunken log2 fold change” value is 0.0559.
For the sequence RRIRGRPPRLPRPRPRPYLNPRP, the “shrunken log2 fold change” value is -0.233.
With RRIRMRPPRLPRPRPRPSMAPRP, the “shrunken log2 fold change” value came to 0.925.
The figure for RRIRNRPPRLPRPRPRPFVHPRP is -0.568; for RRIRMRPPRLPRPRPRPPTDPRP it is 1.21; for RRIRDRPPRLPRPRPRPCRAPRP it is -0.221.
For RRIRVRPPRLPRPRPRPMCLPRP, the “shrunken log2 fold change” value was -0.0244.
For RRIRTRPPRLPRPRPRPFTKPRP, the “shrunken log2 fold change” value was -0.0107.
The figure for RRIRRRPPRLPRPRPRPPGRPRP is 1.52.
Regarding RRIRIRPPRLPRPRPRPPAIPRP, the “shrunken log2 fold change” value is 0.00229.
Next, RRIRIRPPRLPRPRPRPNFCPRP: -0.162; RRIRHRPPRLPRPRPRPIHNPRP: -0.545.
Take RRIRCRPPRLPRPRPRPEQNPRP: the “shrunken log2 fold change” value is 0.268.
For the sequence RRIRDRPPRLPRPRPRPVKWPRP, the “shrunken log2 fold change” value came to 0.00911.
As for RRIRGRPPRLPRPRPRPIGKPRP, the “shrunken log2 fold change” value was determined as 0.035.
Regarding RRIRVRPPRLPRPRPRPCKSPRP, the “shrunken log2 fold change” value is -0.214.
Take RRIRFRPPRLPRPRPRPGQTPRP: the “shrunken log2 fold change” value came out at 0.0249.
Consider RRIRLRPPRLPRPRPRPEWNPRP, for which the “shrunken log2 fold change” value is -0.083.
Next, RRIRTRPPRLPRPRPRPHQFPRP: -0.738.
Consider RRIRPRPPRLPRPRPRPWMWPRP, for which the “shrunken log2 fold change” value is 0.0296.
The figure for RRIRCRPPRLPRPRPRPTLLPRP is 0.0984; for RRIRGRPPRLPRPRPRPKGEPRP it is 0.197; for RRIRVRPPRLPRPRPRPAMYPRP it is 3.58.
RRIRPRPPRLPRPRPRPANLPRP: the “shrunken log2 fold change” value is -0.12.
RRIRGRPPRLPRPRPRPPWYPRP: the “shrunken log2 fold change” value was found to be 0.26.
On to RRIRSRPPRLPRPRPRPMGIPRP, for which the “shrunken log2 fold change” value came to 0.0414.
Consider RRIRQRPPRLPRPRPRPDQTPRP, for which the “shrunken log2 fold change” value is -0.0116.
As to RRIRVRPPRLPRPRPRPDEWPRP, the “shrunken log2 fold change” value was 0.0467.
Regarding RRIRKRPPRLPRPRPRPRGCPRP, the “shrunken log2 fold change” value amounted to 0.128.
Regarding RRIRCRPPRLPRPRPRPAMVPRP, the “shrunken log2 fold change” value stood at 0.204.
Turning to RRIRLRPPRLPRPRPRPMADPRP, the “shrunken log2 fold change” value worked out at 0.0237.
Next, RRIRKRPPRLPRPRPRPWYAPRP: -0.132.
